Results: the DeepSol protein solubility set

assay: soluble on expression in E. coli; label from the status in PepcDB or PDB records

Row | Sequence | soluble on expression in E. coli
1 | MGSDKIHHHHHHMSQQASLPDDDNWLLEDTDGDEAGRPSEVRKPWKVLIVDDEKDVHTATRIALRGISYKERPLELLSAYSGAEAFQMLQQHADIALIMLDVVMESEDAGLRLVHRIREELDNGVVRIVLRTGQPGQAPEQEVILNYDINDYKTKTELTTQKLFTTTIASLRAYENLVSLEKNRQGLAKILESASDLYQLHSLREFASGVLRQISALLDIGTDGILCVRNDNLVGRPELEILAVSGAYEYLAESGDLSNEPHLAAVFQQVFKEKRSIYQHPYDVLYISSRNRREFAVHFMPQWPLDSVERDLLDVFCQRISAAYDNLYLYNQLRSAQEATVVALADLAEFRDTDTGDHVLRVQKLTDAIAEEMVSHNHYPELMTHEFMDMVGMASILHDIGKVATPDHILLKPGKLDPEERAIMEQHATIGAQILAKSAQLVEGASYLSLGSEIAGGHHEHFDGNGYPGKLQGQAIPLSARIVAVVDVFDALLNKRPYKEPWSMEDTMKYINGRSGTQFDPHVVAALSRLVSEDRLPVQFGD | not soluble
2 | MGSDKIHHHHHHMSQRLQALYGLKWNPFSPELPLEALYVPPRVENFCWRIENALVREGGFAMIHGEPGTGKSVVMRVLAEKLERLTDLTVVSINHPQSNLADFYREMGDIFGLELRPHNRWGGFRSLRDRWMSHLQSTRRRPILLIDEAQEMSPGVLNELRLMASARFDSQPLLCVVLAGDTRLTDKLRRDELLPLGSRIRSRLGTEKASADDLLACLDHLLASAGAPQLMTPPLRHTLCEHALGNYRVLTTLANELLTTAAQRELSELDEKLYFEVFAPSTQSSRRTPARQPNGAR | not soluble
3 | MGSDKIHHHHHHMSRGIYIVANDRVIDNAIALLNSIRYYDPEVTIYLIPFNENYHKVAEQLSTLHKVQIFPDLELIDKFTKRIGEIFDRDFLALPNKMRKLVAWFGPLDEFIYIDTDIVVFEKIADNLDKLSEVDFFCCDYHYANDKLRNIFSPFVKEQQLFSDAQLQDVFNSGFWASRKGVITEEQMDEALRECAAHREYFDFSEGVTDQPILNYLVLKLIDKRGNLVKIPGGGPGSWAGSQSFQQQDYALYDRGQRLKYLHWAGTRMKTGSPYWQLWEHYRYLHEGKFAFISKLTRRLFPFVAART | not soluble
4 | MGSDKIHHHHHHMSRITDYGFLFQTTFGTSKTNLVNNIQLSQMNSSSVQKQLKAAGIDTNSKKYKAALSEMMKNGNGAMFTNVQAIKNLMSQYDKNGDWIDPNTGLTGLAVTDENRNSYKHIISIPESSREEMFELAKKEFLNENGTLNGDTTKRESVYNNLYRKMDKDDRLSAGWTMEQYEHQYRQAFAEAAKAADPTWKAGKPIPAGALDGITRESVESGKKSVDIKI | not soluble
5 | MGSDKIHHHHHHMSRMIRFHKFGAADVLRCEEQAEPSPAADEVQIRVEAVGVSWYDVLWRQNLAPSQARLPAGIGHEMAGVVTAVGEGVDDIAVGDRVASFPATSANDHPVYGDVIVLPRTAITRYPNVLTPIEASVHYTPLLIAYFAYVDLARAKAGQTALVTDASHCAGPAFVQLGRALGLKVFAATKEAAQRDYLLGLGADKVIVTEEQDLLLQIGKYTDGRGVDMVLDGMGGPQMSLLGDVLAPRGSLVLYGLQGGNQTPFPACAAFQKNIQFYVHCIGNFTGKPELGISQDQVALQRALRDINQFTADQLLTPQIIKVYPFEQVVEAHRYMDQCPCGGRVVLDMAQH | not soluble
6 | MGSDKIHHHHHHMSRNRPAPSGDQFDLFLPYVADMPMRDQREMMERPFFSLAKSKRVKPIDYTSPDGKLWVHVSGNPDYGMATIWDADILIYCASVLADMARRGVNDVPRKLHLMPYDLLRAIGRPTTGRAYELLGQALDRLVATTIKTNIRAENRREATFSWLDGWTQLVDEKTERSRGMTIELSNWFWEGVMMKGGVLSIDRAYFDITGGRERWLYKVARKHAGGAGEEGFAISMPVLFEKSGAEGEYRRFKFEILKLAEKNALPGYGLSVETARGGEPMLRMRRVDGKDGADRALPEAGRQGAEARTVASTAPDVSPGKHSSGASETVDVRALIRKTVAGVSDAATRGFMTDETIRHLRETCPGWDLHALHAEFESWVNGDSARLPANWQKAFIGWVKRHHEKNGHALRR | not soluble
7 | MGSDKIHHHHHHMSRPKILYFITEDWYFCSHRLPLALAARDAGYDVAVVTNVNEHADVIRRAGIRLIPFDLSRKGMNPASELAVLARLIALYRKEKPDIVHQVAMKPVLYGSLAARLSGVSRVVNALAGLGYIFTSDQPKARFLRPVIGSAFRGLLNSRRSRLILQNQDDRAKFIRKRFISEKRIRLIRGSGVDTAVFVPTPEPPGVPVVILPSRMLWDKGVREFVDAAGQLKKRGISARFVLVGDADPHNPSAIHTEQLTAWHAEGAVEWWGRRDDMPAVFEQSHIVCLPSYREGLPKVLLEAASCGRPIVTTDTPGCRDVVRQGENGLLVPVRGTAELADALQLLIEQPALRKKMGCKGREIVVSEFALEKVVAKTMNIYRELLKP | not soluble
